According to the DeepSol protein solubility set:

Test: soluble on expression in E. coli; label from the status in PepcDB or PDB records

Row | Sequence | soluble on expression in E. coli
1 | MQYHEPVWIPAHLTTGEPDSFAAFTLEERLPAILDNLANHADARTDQALQQLAVEIREGEITPLPPVILGLFDQVIKPYTGRRWTDMPFLTVELYFYARILLAFGHTATTLVDPFHPIKNTVSLQAIESLTTMTGYCDSDCDITGLLRWSMTGNTADLSQQVVTDAGQISLLVDESYVAGGLFDSGLNRIDFVFDNAGMDVLTDLLLILRISRHCSRIVAHVRPWPMFVSDVTMTDMKYLIRKLVTSSIPAAKKLGEDITQLLHQNRLIFRSSSALGLPVCFCEEEALTRETFENTELVIFKGDLNYRYFVGDRRWPHTMEKRYFFERFSQPAICLRTLKSEVLVGLPADIATRTLHLQPDWLTSGRYGIIQVFAHMAGDPNSLEHHHHHH | not soluble
2 | MGSDKIHHHHHHMRKVGMTTTIPVEVVYAAGLIPVDLNNIFVTHENPQSLVEEAEMAGYPRNLCAWIKGLYSTILQNDDIQTLIAVTQGDCSNTHALMETLEMAGVNVIPFAFPFDRDYDLLKLQMEKLINTLGTTWDEVYHAKKRLDAIRSKVHELDRLTWQGDRVRGWDNHLYQVCCSDLEGDPEDFGRRVDQYLAELPAKEPIKAKVRLAYIGVPPIMDDLYDYVEERGARVVFNEVQRQFTMPFATDDIVEQYRIYSYPYGIFYRLQDISRELEQRQVDGVIHYAQSFCYRQIEDLIVRQKLKYPILTLEGDKPNKLDARTRMRLDAFLDMLR | not soluble
3 | MVYVAVLANIAGNFPALTAALEKIEELKEEGYEIEKYYILGNIVGLFPYPREVIEAIKNLAKTSNVKVIRGKYDQLIAMSDPHAGDPKYIDKLEIPDHLKATLKYTWEKLGHEGREYLRDLPIYLVDKIGKNEIFGVYGSPVNPFDGEILPDQPTSYYEAIMRPVKEYEMLLVASPRYPLDAMTMYGRVVCPGSIGFPPAREHKATFALVDAETLKVKFIEVEYDKKIIEDRIKLEKLPEEVIKILYHGGKA | soluble
4 | MTNIEILENMLKLQQKLNDETNGLNWENGYTKEGKLISWRRCIYMECAELIDSFTWKHWKNISSLTNWENVRIEIVDIWHFILSLLLEEYRDKNNKDFKAIATEVNAVSVFQDFCKEEEYPNEGDIYGILNDIELIIHKCSGFGFNLGELLSTYFTLAIKCGLNLEILYKTYIGKNVLNIFRQNNGYKDGSYKKTWNGKEDNEVLAQILEQELDFDTIYKKLEECYKKA | soluble
5 | GPGSMELSFPDKYYEVAKYFDYYVGNLEESPLLSDAQRLMFYALRQQADHGQCTTAAPSFWNSRERHKHQAWKQLGRMSTFEAMVFFVQQFEQLLTQLENSTGQPASTSGATARAGAVDWPSRLREMKSKMAPSPGNRPHRSEALASDGAHATNDILAVRRGPSPA | soluble
6 | MTRIISIVSGKGGTGKTTVTANLSVALGEMGRKVLAVDGDLTMANLSLVLGVDDVNITLHDVLAGDAKLEDAIYMTQFENVYILPGAVDWEHVIKADPRKLPEVIKSLKGKYDFILIDCPAGLQLRAMSAMLSGEEAILVTNPEISCLTDTMKVGMVLKKAGLAILGFILNRYGRSERDIPPEAAQDVMDVPLLAVIPEDPVIREGTLEGIPAVKYKPESKGAQAFIKLAEEVDKLAGIKAKI | soluble
7 | MGSDKIHHHHHHADNPVVQTLYTTDPAPMVYNGTCYLYTGHDEDGSTWYTMKDWRCYSSTDMVNWTDNGSPLAYNTFSWAKGDAWAGQCIPRNGKFYYYVPVTQKSGGMAIGVAVSNSPTGPFVDALGHPLAYTGTGDIDPTVFIDNDGQAYLYWGNPNLYYVKLNQDMISYSGKIVQVPLTTAGFGVRKGNSSRPTLYEEGPWFYKRNGMYYMVYAAGGIPEYISYSTSKSPTGPWYYKGVIMPSQGRSFTNHPGVIDFKGNSYFFYHNGALPGGSGFTRSVCIEQFKYNADGTFPTINMTTTGVSGIGNLNPYTQNEAETICWESNVKTEKCSEGGMDVCNIQNNSWIKVKGVNFDSGAASFNARVASATNGGNIELHLDSPSGTLIGTCHVNSTGGWQSWVTNSCNVSGAKGIHDLYLKFTGGNGYLFNVNWWKFNGTKTVSTR | not soluble
8 | MSLKGLTVGFLPKAVNNPYFTSADKGGEKALEELGSSYKEVGPSSATDTSGQVSYVNTLTQQQVDAMAVSAQDPGALCTALKQAMKNGIEVVTYDSDTKTGCRNAFVSQASAEDLGRTEVQLLAEQIGYKGEIAILSAAQTATNQNTWIGFMKDELKDPKYKNVKLVKVAYGNDDAQQSFQQTQGLLQEHPKLAGIISPTTVGIKAAAQYLSGSKYKGKVKLTGLGTPNDMRKYVKNGTVEGFELWDPAKLGELAARTAVALSSGQISGKEGETFKAGDMGSYTIGKDGEGHHHHHH | soluble
